Source: paper PMC5356071

Biological target: Zika virus envelope (E) glycoprotein, strain H/PF/2013 (French Polynesia), on mature infectious virions (Zika virus strain H/PF/2013, French Polynesia)
Test: cryo-EM structure; mature ZIKV H/PF/2013 particles incubated with ZIKV-117 Fab at 4 °C for 2–3 h, flash-frozen on lacey carbon grids; icosahedral reconstruction at 6.2 Å; E dimer (PDB 5IRE) and Fab domains (ZV-67, PDB 5KVG) fitted; occupancies by EMfit

B1: ZIKV-117 Fab (Fab fragment of the human monoclonal antibody ZIKV-117) (Fab, V domains shown)
VH: QVQLVESGGGVVRPGGSLRLSCAASGFTFKNYGIHWVRQAPGKGPEWVAFVRYDGNNKYYADSVKGRFTISRDNAKNTLSLQMNSLRVEDTAVYFCARDPETFGGFDYWGQGTLVTVSS
VL: ETVMTQSPATLSVSPGERGTLSCRASESVSSNLAWYQQKPGKAPRLLIYGASTRATGIPDRFSGSGSGTEFTLTISSLQSEDFAVYYCQQYYYSPRTFGQGTKVEVK
B1 gave a Fabs bound per virion at saturation (Fabs per virion (180 sites)) of 60, a Fabs per virion at the 2f sites (Fabs per virion) of 21 and a Fabs per virion at the 3f sites (Fabs per virion) of 35. It also gave an occupancy at the 2f site (average Fab density relative to E protein density) of 35% and an occupancy at the 3f site (average Fab density relative to E protein density) of 58%.
